# B1: GST-tagged Spt8p (natural protein, S. cerevisiae, UniProt P38915 1-602, looked up)
# chain: MDEVDDILINNQVVDDEEDDEEMLSGLENDSKQDLEGNDDGGEDEEDDDDDDEDDDDDEDEREDDDEQEDDDGEDDAARMDKTATPTNEHQHDEQKAAAAGAGGAGDSGDAVTKIGSEDVKLSDVDGGVGSREASSSTHEASANGEVYEYYKHMLNAAQIADSYNIYPTAAIPIQTHVNALAVSRGLKYLFLGGSDGYIRKYDLLNTLEGKLSLTILQKHSLAESIQNAGILQSYWENEIPQKKSEMKLSANKTDYEPKVSPVHSLEVQSECLFILSGLQNGGITMQGVRYMEGSIAHYFKGRNGHTQIVNILRLNGQEDRFLSGSWDKRLLEWDLQTGDIVNEFKKSRSELSSLEMRPLYSSVDVSGNVNSGKENENADDDMDSLFGDEDEDEKQDAGNEPVETGDGSNGEENKEQISEESLNIVYDESVFMTSGLNGSVHIWDRRMTQSPALSLERGAGVPPWCLSACWGVDGDHVYAGRRNACVEQFDLKMPSKPIHNLKLPSISGPVSCVKAMPNNKHLLCASRDNIRLYNVEIAVDASNSTTKSSKVPFLIVPGHHGGIISNLYLDPTSRFIISTSGNRGWQGNSTDTTLIYDIDLE
# Target: T1, 6xHis-tagged full-length Prp5p (S. cerevisiae, UniProt P21372 1-849)
# T1 sequence: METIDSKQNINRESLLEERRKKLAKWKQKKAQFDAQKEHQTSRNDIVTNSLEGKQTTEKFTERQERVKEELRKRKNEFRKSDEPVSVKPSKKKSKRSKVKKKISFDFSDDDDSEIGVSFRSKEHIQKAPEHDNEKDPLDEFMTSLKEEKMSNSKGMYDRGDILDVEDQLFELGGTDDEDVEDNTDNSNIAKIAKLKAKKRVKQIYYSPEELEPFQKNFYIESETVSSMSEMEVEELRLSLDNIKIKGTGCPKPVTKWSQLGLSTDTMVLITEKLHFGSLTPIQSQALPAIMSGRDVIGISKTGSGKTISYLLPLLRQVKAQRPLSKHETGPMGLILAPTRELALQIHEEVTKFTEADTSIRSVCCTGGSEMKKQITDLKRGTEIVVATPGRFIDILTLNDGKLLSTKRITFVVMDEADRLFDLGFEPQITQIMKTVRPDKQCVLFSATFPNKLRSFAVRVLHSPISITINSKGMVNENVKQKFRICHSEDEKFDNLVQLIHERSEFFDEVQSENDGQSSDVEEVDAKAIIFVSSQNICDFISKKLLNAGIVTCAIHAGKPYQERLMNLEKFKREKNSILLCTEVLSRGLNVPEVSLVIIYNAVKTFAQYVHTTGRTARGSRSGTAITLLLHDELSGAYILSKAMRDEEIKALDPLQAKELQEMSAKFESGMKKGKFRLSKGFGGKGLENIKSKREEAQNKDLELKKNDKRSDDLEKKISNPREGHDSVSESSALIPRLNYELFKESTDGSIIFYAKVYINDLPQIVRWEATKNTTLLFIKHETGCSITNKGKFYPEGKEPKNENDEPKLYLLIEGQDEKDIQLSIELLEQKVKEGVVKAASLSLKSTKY
# Experiment: pull-down
binder,measurement,value
B1,binding result,binds

# Reference: article PMC7293005 (Nucleic Acids Research, 2020)
